Assay results taken from US20160200789A1, “IL4 CONJUGATED TO ANTIBODIES AGAINST EXTRACELLULAR MATRIX COMPONENTS” (PHILOGEN S.P.A., priority 2013, published 2016).

Tests used:
[1] = tested on: CHS-induced ear inflammation in K14-VEGF-A mice; test: Contact hypersensitivity-induced ear inflammation in K14-VEGF-A mice; type: in vivo, mouse
Source text: A delayed-type hypersensitivity reaction was induced in the ear skin of female FVB mice that overexpress VEGF-A in the epidermis under control of the human keratin 14 promoter as previously described (Detmar et al., 1998; Kunstfeld et al., 2004; Xia et al., 2003). Heterozygous VEGF-A transgenic mice with no pre-existing inflammatory lesions were sensitized by topical application of a 2% oxazolone (4-ethoxymethylene-2-phenyl-2-oxazoline-5-one; Sigma) solution in acetone/olive oil (4:1 vol/vol) to the shaved abdomen (50 μl) and each paw (5 μl). Five days after sensitization, the ears were challenged by topical application of 20 μl of a 1% oxazolone solution. Therapy was started on day 7 and repeated at day 9, 11 and 13. […] Ear thickness was measured every other day and at day 15, mice were sacrificed and ear draining lymph nodes were weighted. The timeline for this experiment is illustrated in FIG. 13A. Each treatment event is indicated by an arrow.

[2] = tested on: collagen induced arthritis in DBA/1J mice; test: Aggressive collagen induced arthritis model, targeted vs untargeted IL4 (Example 3a); type: in vivo, mouse; conditions: 100 μg/injection i.v., days 1, 3 and 7
Experimental: Injections were administered on day 1, 3 and 7.

[3] = tested on: cytokine levels in ear tissue; test: Cytokine levels in ear tissue extracts of psoriasis models (multiplex bead flow cytometry); type: in vivo, mouse
Experimental: Ear tissue was obtained at the end of therapy from each mouse and processed to a tissue extract as previously described (Schwager et al., 2013). The end of therapy was day 13 for the IMQ model described in Example 14 and day 15 for the CHS model described in Example 15. Briefly, ears were cut into small pieces and suspended in a 50 mM Tris, 150 mM NaCl buffer containing complete protease inhibitor cocktail (Roche Diagnostics, Rotkreuz, Switzerland). For homogenization, a 5 mm stainless steel bead (Qiagen, Hombrechtikon, Switzerland) was added, and the tissue was homogenized in a QIAGEN Tissue Lyzer (4× 1 minute, 4° C., 30 Hz). After centrifugation (5 min, 4° C., 16,000 g), supernatant was harvested […]. Protein concentrations were determined by BCA assay (Thermo Fisher Scientific, IL) and total protein concentration of all samples was normalized. To quantify cytokine levels of treated and control mice, a multiplex bead-based flow cytometry analysis was performed using the mouse Th1/Th2/Th17/Th22 13plex FlowCytomix Multiplex kit (eBioscience). FACS analysis was performed on a BD FACS Canto (BD Bioscience, Allschwil, Switzerland) and data evaluated with FlowCytomix Pro 3.0 software (eBioscience). Using standard curves generated by the FlowCytomix Pro 3.0 software with control samples, a level of quantification was assigned for each cytokine.

[4] = tested on: A20 lymphoma; test: Biodistribution and ex vivo immunofluorescence in A20 tumour-bearing mice; conditions: after i.v. administration
[5] = Solubility of the product (limit of dose escalation); type: physicochemical; conditions: doses above 90 μg could not be tested
[6] = tested on: collagen induced arthritis in DBA/1J mice; test: Aggressive collagen induced arthritis model, F8-IL4 dose comparison (Example 3); type: in vivo
Experimental: Animals showing signs of joint inflammation with a total score of 1 to 3 were included in the therapy experiments. When the joint inflammation was too high at day one (more than one paw, score>3) mice were not included in the therapy experiments. Experiments were performed under a project license granted by the Veterinaeramt des Kantons Zuerich, Switzerland (208/2010).
The dose for TNFR-Fc was determined by calculations from the human ENBREL dose and the approximate local TNF concentration compared with the bioactivity of the fusion protein.

[7] = tested on: A20 lymphoma; test: Therapy studies in A20 tumour-bearing mice; conditions: 90 μg i.v. every second day
Source text: Data represent mean tumour volumes (±SEM), n=5 mice per group. […] Data represent mean tumour volumes (±SEM), n=5 mice per group.
Differences in tumor volume, % ID/g and Tumor-to-blood ratio between therapeutic groups were compared using Graphpad Prism's repeated measures (mixed model) ANOVA analysis.
For this, as well as the other experiments described below, F9 teratocarcinoma (CRL-1720; ATCC, Molsheim Cedex, France), CT26 colon carcinoma (CRL-2638; ATCC, Molsheim Cedex, France) and A20 lymphoma (TIB-208; ATCC, Molsheim Cedex, France) were grown according to the supplier's protocol and tumour cells implanted subcutaneously in the flank using 25×10^6 cells (F9), 2×10^6 cells (CT26) or 8×10^6 cells (A20). F9 teratocarcinoma cells were implanted into 129/SvEv mice (Charles River, Sulzfeld, Germany), CT26 colon carcinoma cells were implanted into Balb/c mice (Elevage Janvier, Le Genest-St-Isle, France) and A20 lymphoma cells were implanted into Balb/c mice (Elevage Janvier, Le Genest-St-Isle, France). Mice were sacrificed when tumour volumes reached a maximum of 2000 mm^3.

[8] = tested on: CT26 colon carcinoma; test: Ex vivo immunofluorescence of CT26 tumours; type: in vivo, mouse
Source text: In order to study a second immunocompetent mouse model of cancer, the inventors focused on Balb/c mice (obtained from Elevage Janvier [France]) bearing subcutaneous CT26 tumours of colorectal origin.

[9] = IMQ and CHS models, end of therapy

B1: F8-IL4: antibody F8 (anti-EDA of fibronectin) in diabody format fused at the C-terminus to murine interleukin 4 via 15 amino acid linker (protein)
chain: EVQLLESGGGLVQPGGSLRLSCAASGFTFSLFTMSWVRQAPGKGLEWVSAISGSGGSTYYADSVKGRFTISRDNSKNTLYLQMNSLRAEDTAVYYCAKSTHLYLFDYWGQGTLVTVSSGGSGGEIVLTQSPGTLSLSPGERATLSCRASQSVSMPFLAWYQQKPGQAPRLLIYGASSRATGIPDRFSGSGSGTDFTLTISRLEPEDFAVYYCQQMRGRPPTFGQGTKVEIKSSSSGSSSSGSSSSGHIHGCDKNHLREIIGILNEVTGEGTPCTEMDVPNVLTATKNTTESELVCRASKVLRIFYLKHGKTPCLKKNSSVLMELQRLFRAFRCLDSSISCTMNESKSTSLKDFLESLKSIMQMDYS
modifications: Synthetic sequence Amino acid sequence of F8 -(murine) IL4 of PCT/EP2014/053998
notes: antibody F8 (anti-EDA of fibronectin) in diabody format fused at the C-terminus to murine interleukin 4 via 15 amino acid linker
ear thickness ([1]; 100 μg i.v. days 7, 9, 11, 13, vs PBS or KSF-IL4): significantly reduced ear thickness | ear draining lymph nodes (weight) ([1]; day 15): smaller | decrease in ear thickness from treatment initiation (day 7) ([1]; mouse, in vivo): significantly more than treatment with either FSF-IL4, F8-SIP or PBS | activity in reducing arthritic score and paw swelling compared to KSF-IL4 [2]: statistically significant superior activity | IL2 level in ear tissue [3, 9]: do not appear to show a change in concentration | IL10 level in ear tissue [3, 9]: up-regulated | IL13 level in ear tissue [3, 9]: up-regulated | IL27 level in ear tissue [3, 9]: up-regulated | IL-1 alpha level in ear tissue ([3]; IMQ-induced psoriasis model): may be down-regulated | accumulation around tumour neo-vascular structures [4]: preferential accumulation | solubility [5]: insufficient solubility | reduction in paw swelling compared with murine version of ENBREL ([6]; 100 μg vs TNFR-Fc 30 μg): at least equivalent | tolerability ([6]; 100 μg/injection): well tolerated | weight change ([6]; 100 μg/injection): lost less weight than mice receiving only the buffer vehicle (PBS) | disease-modulating effect (arthritic score) ([6]; 100 μg/injection i.v., days 1, 4 and 7): at least as potent as the murine version of Enbrel (TNFR-Fc) | paw swelling ([6]; 100 μg, vs buffer vehicle or low dose): less severe paw swelling than mice receiving only the buffer vehicle or low amounts of F8-IL4 | tumour growth retardation [7]: superior tumour growth retardation compared to KSF-IL4 | accumulation at the tumour site [8]: preferentially accumulated at the tumour site
